Measurements published in patent publication US20220213196A1 (GRITSTONE BIO, published 2022).

Legend:
[1] = target: T1, HLA-A*02:01_… (HLA-PEPTIDE target G8), recombinant soluble complex (human, UniProt P04439 25-297 at identity 0.94); P61769 21-119, enzymatically biotinylated (BirA) for screening and functional assays); assay: scFv PPE ELISA
T1 construct: Also crystallised with Fab G8-P1C11

[2] = target: HLA-A*01:01_… (HLA-PEPTIDE target G10), recombinant soluble complex (human, UniProt P04439-2 25-297; P61769 21-119, enzymatically biotinylated (BirA) for screening and functional assays); assay: scFv PPE ELISA

fold binding to target pHLA over minipool of negative control pHLAs [1] [fold]	fold binding to target pHLA over minipool of negative control pHLAs [2] [fold]	Binder
≥ 3		scFv R3G8-P5C03 (scFv, V domains shown) VH: QVQLVQSGAEVKKPGASVKVSCKASGYTFTSYYMHWVRQAPGQGLEWMGWMNPNSGNTGYAQKFQGRVTMTRDTSTSTVYMELSSLRSEDTAVYYCARGLLGFGEFLTYGMDVWGQGTLVTVSS VL: DIQMTQSPSSLSASVGDRVTITCRASQGISNWLAWYQQKPGKAPKLLIYAASTLQSGVPSRFSGSGSGTDFTLTISSLQPEDFATYYCQQTYSTPWTFGQGTKLEIK
≥ 3		scFv R3G8-P4F05 (scFv, V domains shown) VH: QVQLVQSGAEVKKPGASVKVSCKASGYTFSNMYLHWVRQAPGQGLEWMGWINPNTGDTNYAQTFQGRVTMTRDTSTSTVYMELSSLRSEDTAVYYCARGLYGDYFLYYGMDVWGQGTKVTVSS VL: DIQMTQSPSSLSASVGDRVTITCRASQGISNYLAWYQQKPGKAPKLLIYAASTLQSGVPSRFSGSGSGTDFTLTISSLQPEDFATYYCQQSYSTPLTFGGGTKVEIK
≥ 3		scFv R3G8-P2C10 (scFv, V domains shown) VH: QVQLVQSGAEVKKPGASVKVSCKASGYTFTSYYMHWVRQAPGQGLEWMGWINPYSGGTNYAQKFQGRVTMTRDTSTSTVYMELSSLRSEDTAVYYCAKGGIYYGSGSYPSWGQGTLVTVSS VL: DIQMTQSPSSLSASVGDRVTITCRASQDVSTWLAWYQQKPGKAPKLLIYAASSLQSGVPSRFSGSGSGTDFTLTISSLQPEDFATYYCQQSHSTPQTFGQGTKVEIK
≥ 3		scFv G8-P2E06 (scFv, V domains shown) VH: QVQLVQSGAEVKKPGASVKVSCKASGYTLTTYYMHWVRQAPGQGLEWMGWINPNSGGTNYAQKFQGRVTMTRDTSTSTVYMELSSLRSEDTAVYYCARAVYYDFWSGPFDYWGQGTLVTVSS VL: DIQMTQSPSSLSASVGDRVTITCRASQGISNSLAWYQQKPGKAPKLLIYAASSLQSGVPSRFSGSGSGTDFTLTISSLQPEDFATYYCQQANSFPWTFGQGTKLEIK
	≥ 3	scFv R3G10-P1A07 (scFv, V domains shown) VH: EVQLLESGGGLVKPGGSLRLSCAASGFTFSSYWMSWVRQAPGKGLEWVSGISARSGRTYYADSVKGRFTISRDDSKNTLYLQMNSLKTEDTAVYYCARDQDTIFGVVITWFDPWGQGTLVTVSS VL: DIQMTQSPSSLSASVGDRVTITCRASQGISNYLAWYQQKPGKAPKLLIYAASSLQGGVPSRFSGSGSGTDFTLTISSLQPEDFATYYCQQYFTTPYTFGQGTKLEIK
≥ 3		scFv R3G8-P5G08 (scFv, V domains shown) VH: QVQLVQSGAEVKKPGASVKVSCKASGYTFTSNYMHWVRQAPGQGLEWMGWMNPNSGNTGYAQKFQGRVTMTRDTSTSTVYMELSSLRSEDTAVYYCARGLYGDYFLYYGMDVWGQGTTVTVSS VL: not shown
	≥ 3	scFv R3G10-P1B07 (scFv, V domains shown) VH: QVQLVQSGAEVKKPGASVKVSCKASGYTFTSYYMHWVRQAPGQGLEWMGIIHPGGGTTSYAQKFQGRVTMTRDTSTSTVYMELSSLRSEDTAVYYCARDKVYGDGFDPWGQGTLVTVSS VL: DIQMTQSPSSLSASVGDRVTITCRASQSISRWLAWYQQKPGKAPKLLIFDASRLQSGVPSRFSGSGSGTDFTLTISSLQPEDFATYYCQQAEAFPYTFGQGTKVEIK
≥ 3		scFv R3G8-P5F02 (scFv, V domains shown) VH: QVQLVQSGAEVKKPGASVKVSCKASGYTFTGYYIHWVRQAPGQGLEWMGVINPSGGSTTYAQKLQGRVTMTRDTSTSTVYMELSSLRSEDTAVYYCARDRDSSWTYYYYGMDVWGQGTTVTVSS VL: EIVMTQSPATLSVSPGERATLSCRASQSVGNSLAWYQQKPGQAPRLLIYGASTRATGIPARFSGSGSGTEFTLTISSLQSEDFAVYYCQQYGSSPYTFGQGTKVEIK
	≥ 3	scFv R3G10-P4E12 (scFv, V domains shown) VH: QVQLVQSGAEVKKPGASVKVSCKASGYTFTGYYMHWVRQAPGQGLEWMGMIGPSDGSTSYAQRFQGRVTMTRDTSTSTVYMELSSLRSEDTAVYYCAREEDGMDVWGQGTTVTVSS VL: DIQMTQSPSSLSASVGDRVTITCRASQGISTYLAWYQQKPGKAPKLLIYDASSLQSGVPSRFSGSGSGTDFTLTISSLQPEDFATYYCQQYYSYPWTFGQGTRLEIK
≥ 3		scFv R3G8-P2E04 (scFv, V domains shown) VH: QVQLVQSGAEVKKPGSSVKVSCKASGGTFSSYGVSWVRQAPGQGLEWMGWISPYSGNTDYAQKFQGRVTITADESTSTAYMELSSLRSEDTAVYYCARGLYYMDVWGKGTTVTVSS VL: DIQMTQSPSSLSASVGDRVTITCRASQSISSWLAWYQQKPGKAPKLLIYDASNLETGVPSRFSGSGSGTDFTLTISSLQPEDFATYYCQQSYSTPLTFGGGTKLEIK

Second part, the binder before the results:

Binder	fold binding to target pHLA over minipool of negative control pHLAs [1] [fold]	fold binding to target pHLA over minipool of negative control pHLAs [2] [fold]
scFv G8-P1A04 (scFv, V domains shown) VH: QVQLVQSGAEVKKPGASVKVSCKASGYPFIGQYLHWVRQAPGQGLEWMGIINPSGDSATYAQKFQGRVTMTRDTSTSTVYMELSSLRSEDTAVYYCARDLSYYYGMDVWGQGTTVTVSS VL: DIQMTQSPSSLSASVGDRVTITCWASQGISSYLAWYQQKPGKAPKLLIYAASSLQSGVPSRFSGSGSGTDFTLTISSLQPEDFATYYCQQSYNTPWTFGPGTKVDIK	≥ 3	
scFv G8-P1C11 (scFv, V domains shown) VH: QVQLVQSGAEVKKPGASVKVSCKASGGTLSSYPINWVRQAPGQGLEWMGWISTYSGHADYAQKLQGRVTMTRDTSTSTVYMELSSLRSEDTAVYYCARSYDYGDYLNFDYWGQGTLVTVSS VL: DIQMTQSPSSLSASVGDRVTITCQASQDISNYLNWYQQKPGKAPKLLIYAASSLQSGVPSRFSGSGSGTDFTLTISSLQPEDFATYYCQQSYSIPPTFGGGTKVDIK	≥ 3	
scFv G8-P1D02 (scFv, V domains shown) VH: EVQLLESGGGLVQPGGSLRLSCAASGFTFSSYWMSWVRQAPGKGLEWVSSISGRGDNTYYADSVKGRFTISRDNSKNTLYLQMNSLRAEDTAVYYCARASGSGYYYYYGMDVWGQGTTVTVSS VL: DIQMTQSPSSLSASVGDRVTITCQASQDISNYLNWYQQKPGKAPKLLIYAASSLQSGVPSRFSGSGSGTDFTLTISSLQPEDFATYYCQQSYSAPYTFGGGTKVEIK	≥ 3	
scFv G8-P1B03 (scFv, V domains shown) VH: EVQLLESGGGLVQPGGSLRLSCAASGFTFSDYYMSWVRQAPGKGLEWVSGINWNGGSTGYADSVKGRFTISRDNSKNTLYLQMNSLRAEDTAVYYCARVEQGYDIYYYYYMDVWGKGTTVTVSS VL: DIQMTQSPSSLSASVGDRVTITCRASQSISSYLNWYQQKPGKAPKLLIYKASSLESGVPSRFSGSGSGTDFTLTISSLQPEDFATYYCQQSYSAPYTFGPGTKVDIK	≥ 3	
scFv G8-P2B05 (scFv, V domains shown) VH: EVQLLESGGGLVQPGGSLRLSCAASGFDFSIYSMNWVRQAPGKGLEWVSAISGSGGSTYYADSVKGRFTISRDNSKNTLYLQMNSLRAEDTAVYYCASNGNYYGSGSYYNYWGQGTLVTVSS VL: DIQMTQSPSSLSASVGDRVTITCRASQSISRWLAWYQQKPGKAPKLLIYAASSLQSGVPSRFSGSGSGTDFTLTISSLQPEDFATYYCQQYSTYPITIGQGTKVEIK	≥ 3	
scFv G8-P1H08 (scFv, V domains shown) VH: QVQLVQSGAEVKKPGASVKVSCKASGYTFGNYFMHWVRQAPGQGLEWMGMVNPSGGSETFAQKFQGRVTMTRDTSTSTVYMELSSLRSEDTAVYYCAASTWIQPFDYWGQGTLVTVSS VL: DIQMTQSPSSLSASVGDRVTITCRASQGINSYLAWYQQKPGKAPKLLIYDASNLETGVPSRFSGSGSGTDFTLTISSLQPEDFATYYCQQHNSYPPTFGQGTKLEIK	≥ 3	
scFv G8-P1C01 (scFv, V domains shown) VH: QVQLVQSGAEVKKPGASVKVSCKASGGTFSSHAISWVRQAPGQGLEWMGVIIPSGGTSYTQKFQGRVTMTRDTSTSTVYMELSSLRSEDTAVYYCARGDYYDSSGYYFPVYFDYWGQGTLVTVSS VL: DIQMTQSPSSLSASVGDRVTITCRASQNIYTYLNWYQQKPGKAPKLLIYDASNLETGVPSRFSGSGSGTDFTLTISSLQPEDFATYYCQQANGFPLTFGGGTKVEIK	≥ 3	
scFv G8-P2C11 (scFv, V domains shown) VH: QVQLVQSGAEVKKPGASVKVSCKASGYTFTSYAMNWVRQAPGQGLEWMGWINPNSGGTNYAQKFQGRVTMTRDTSTSTVYMELSSLRSEDTAVYYCARDPFWSGHYYYYGMDVWGQGTTVTVSS VL: not shown	≥ 3	
scFv G8-P1A03 (scFv, V domains shown) VH: QVQLVQSGAEVKKPGASVKVSCKASGGTFSRSAITWVRQAPGQGLEWMGWINPNSGATNYAQKFQGRVTMTRDTSTSTVYMELSSLRSEDTAVYYCARDDYGDYVAYFQHWGQGTLVTVSS VL: DIQMTQSPSSLSASVGDRVTITCRASQSITSYLNWYQQKPGKAPKLLIYDASNLETGVPSRFSGSGSGTDFTLTISSLQPEDFATYYCQQNYNSVTFGQGTKLEIK	≥ 3	
scFv R3G10-P1E12 (scFv, V domains shown) VH: QVQLVQSGAEVKKPGASVKVSCKASGYIFTGYYMHWVRQAPGQGLEWMGMIGPSDGSTSYAQKFQGRVTMTRDTSTSTVYMELSSLRSEDTAVYYCAREDDSMDVWGKGTTVTVSS VL: not shown		≥ 3
scFv G8-P1A06 (scFv, V domains shown) VH: QVQLVQSGAEVKKPGASVKVSCKASGYTFTNYYMHWVRQAPGQGLEWMGWMNPIGGGTGYAQKFQGRVTMTRDTSTSTVYMELSSLRSEDTAVYYCARVYDFWSVLSGFDIWGQGTLVTVSS VL: DIQMTQSPSSLSASVGDRVTITCRASQAISNSLAWYQQKPGKAPKLLIYAASTLQSGVPSRFSGSGSGTDFTLTISSLQPEDFATYYCGQSYSTPPTFGQGTKLEIK	≥ 3	
